Patent US20210179729A1 (University of California, published 2021)
Positions count from the first letter of the chain named.

T1: CDCP1 extracellular domain displayed on the surface of HEK293 (T-Rex-293) cells (human, UniProt Q9H5V8 30-667)
T1 construct: extracellular domain; also called CDCP1 Cell; not shown: fluorescent protein expression reporter and generic single-pass transmembrane domain
T1 sequence (looked up): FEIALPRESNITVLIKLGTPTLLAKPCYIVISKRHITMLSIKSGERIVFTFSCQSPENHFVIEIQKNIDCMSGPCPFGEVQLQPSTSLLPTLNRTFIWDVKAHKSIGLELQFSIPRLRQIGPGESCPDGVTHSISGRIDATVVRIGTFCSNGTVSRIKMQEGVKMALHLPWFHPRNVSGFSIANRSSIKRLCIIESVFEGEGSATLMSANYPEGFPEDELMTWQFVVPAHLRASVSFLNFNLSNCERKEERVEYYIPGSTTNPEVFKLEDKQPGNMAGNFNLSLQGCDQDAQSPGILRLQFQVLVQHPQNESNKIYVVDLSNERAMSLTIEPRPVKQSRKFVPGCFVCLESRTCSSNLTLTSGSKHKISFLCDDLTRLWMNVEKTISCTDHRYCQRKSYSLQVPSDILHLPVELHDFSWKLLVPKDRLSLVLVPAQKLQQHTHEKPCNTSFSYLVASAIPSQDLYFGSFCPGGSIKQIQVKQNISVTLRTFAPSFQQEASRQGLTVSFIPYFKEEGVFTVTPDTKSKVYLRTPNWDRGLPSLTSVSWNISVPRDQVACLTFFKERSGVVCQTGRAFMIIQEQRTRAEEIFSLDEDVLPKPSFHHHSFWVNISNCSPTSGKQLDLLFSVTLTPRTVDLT

T2: CDCP1 aas 30-367 (human, UniProt Q9H5V8 30-367)
T2 construct: range 30-367
T2 sequence (looked up): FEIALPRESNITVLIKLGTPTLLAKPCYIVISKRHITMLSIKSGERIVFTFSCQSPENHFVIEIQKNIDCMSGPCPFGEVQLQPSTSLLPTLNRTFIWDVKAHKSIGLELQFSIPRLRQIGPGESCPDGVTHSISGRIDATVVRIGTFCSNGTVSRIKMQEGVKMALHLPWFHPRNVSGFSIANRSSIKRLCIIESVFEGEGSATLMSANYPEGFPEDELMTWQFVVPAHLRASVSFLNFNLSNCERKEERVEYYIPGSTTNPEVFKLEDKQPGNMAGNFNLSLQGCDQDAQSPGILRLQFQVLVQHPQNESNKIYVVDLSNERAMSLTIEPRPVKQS

T3: Cynomolgus monkey CDCP1 (Cynomolgus monkey, UniProt A0A2K5VLA8 30-667)
T3 construct: construct not described
T3 sequence: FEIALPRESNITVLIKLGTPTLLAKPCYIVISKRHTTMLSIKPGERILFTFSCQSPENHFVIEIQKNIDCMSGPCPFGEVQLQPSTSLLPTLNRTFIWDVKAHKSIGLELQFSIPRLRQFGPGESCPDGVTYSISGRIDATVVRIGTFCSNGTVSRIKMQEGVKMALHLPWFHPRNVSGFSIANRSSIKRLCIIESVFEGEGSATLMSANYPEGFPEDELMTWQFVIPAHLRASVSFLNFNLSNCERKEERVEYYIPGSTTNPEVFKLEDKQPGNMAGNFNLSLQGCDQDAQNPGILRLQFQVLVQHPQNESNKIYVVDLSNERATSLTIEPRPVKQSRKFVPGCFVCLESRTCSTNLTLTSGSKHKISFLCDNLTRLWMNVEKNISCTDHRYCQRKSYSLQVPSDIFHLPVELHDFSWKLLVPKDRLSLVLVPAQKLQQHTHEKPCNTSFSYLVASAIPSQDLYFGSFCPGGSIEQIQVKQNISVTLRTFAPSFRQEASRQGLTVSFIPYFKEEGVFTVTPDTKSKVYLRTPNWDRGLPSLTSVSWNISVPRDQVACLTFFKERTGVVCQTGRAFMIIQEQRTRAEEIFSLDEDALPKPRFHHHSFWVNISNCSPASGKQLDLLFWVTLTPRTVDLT

T4: Human CDCP1 (human, UniProt Q9H5V8 30-667, limits assumed)
T4 construct: also called CUB domain-containing protein 1; SIMA135
T4 sequence (looked up): T1 sequence (looked up)

B1: CDCP1-006 Fab (Fab, V domains shown)
VH: EVQLVESGGGLVQPGGSLRLSCAASGFNLYYSYMHWVRQAPGKGLEWVAYISPYSGSTYYADSVKGRFTISADTSKNTAYLQMNSLRAEDTAVYYCARYSYSALDYWGQGTLVTVSS
VL: DIQMTQSPSSLSASVGDRVTITCRASQSVSSAVAWYQQKPGKAPKLLIYSASSLYSGVPSRFSGSRSGTDFTLTISSLQPEDFATYYCQQSSWHYHLFTFGQGTKVEIK
notes: Tested as Fab
B2: CDCP1-004 Fab (Fab, V domains shown)
VH: EVQLVESGGGLVQPGGSLRLSCAASGFNISYYYMHWVRQAPGKGLEWVASIYSSYGYTSYADSVKGRFTISADTSKNTAYLQMNSLRAEDTAVYYCARVYYGFDYWGQGTLVTVSS
VL: DIQMTQSPSSLSASVGDRVTITCRASQSVSSAVAWYQQKPGKAPKLLIYSASSLYSGVPSRFSGSRSGTDFTLTISSLQPEDFATYYCQQSYYVYPITFGQGTKVEIK
notes: Tested as Fab
B3: CDCP1-008 Fab (Fab, V domains shown)
VH: B2 VH with Y31S, S53P, S54Y, Y55S, S59Y, V99A, G102A, F103M
VL: B2 VL
notes: Tested as Fab
B4: CDCP1-002 Fab (Fab, V domains shown)
VH: B2 VH with I29L, M34I, Y55S, G56S, V99A
VL: B2 VL with V94Y
notes: Tested as Fab from a synthetic Fab-phage library; Used 89Zr-labeled for PET and 125I-labeled for Bmax; also called CDCP1-4A06; CDCP1 Fab
B5: CDCP1-007 Fab (Fab, V domains shown)
VH: B2 VH with S30Y, Y31S, M34I, S53P, S54Y, V99A, F103M
VL: B2 VL with Y93F, V94Y, Y95W
notes: Tested as Fab
B6: CDCP1-003 Fab (Fab, V domains shown)
VH: B2 VH with Y33S, Y52S, S53P, S54Y, Y55S, V99G, G102A, F103L
VL: B2 VL with S91Y, V94F, I97F
notes: Tested as Fab
B7: CDCP1-005 Fab (Fab, V domains shown)
VH: B2 VH with M34I, S53P, S54Y, Y57S, S59Y, V99A
VL: B2 VL with Y93W, V94S, Y95F
notes: Tested as Fab

Experiments:
[1] = molecular target: CD3 on the surface of T-cells (Jurkat reporter cells) (UniProt P07766); assay: cell-based or functional assay
Sequence of CD3 on the surface of T-cells (Jurkat reporter cells) (P07766 23-207): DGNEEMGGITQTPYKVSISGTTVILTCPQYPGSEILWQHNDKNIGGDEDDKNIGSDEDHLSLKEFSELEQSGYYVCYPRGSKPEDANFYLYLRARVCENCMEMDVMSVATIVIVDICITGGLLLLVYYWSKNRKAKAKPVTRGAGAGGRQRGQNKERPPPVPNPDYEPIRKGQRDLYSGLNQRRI

[2] = molecular target: CDCP1 on human cells (MCF10A KRASG12V, HPAC) (human) (UniProt Q9H5V8); assay: cell-based or functional assay
[3] = molecular target: T1, CDCP1 extracellular domain displayed on …; assay: flow cytometry, Fab on CDCP1 Cell
CDCP1 aas 30-367 = molecular target: T2, CDCP1 aas 30-367; assay: ELISA, CDCP1 specificity on fragments
Cynomolgus monkey CDCP1 = molecular target: T3, Cynomolgus monkey CDCP1; assay: ELISA; column head 'ELISA~EC50 Kd (nM)'
Human CDCP1 = molecular target: T4, Human CDCP1; assay: ELISA; column head 'ELISA~EC50 Kd (nM)'

Molecule | T-cell activation (NFAT-dependent GFP reporter, flow cytometry) in co-culture with HPAC cells at 1 nM BiTE [1] | T-cell activation (NFAT-dependent GFP reporter, flow cytometry) in co-culture with HPAC cells at 1 nM BiTE [2] | Flow Cytometry (MFI) [3] | binding result (CDCP1 aas 30-367) | EC50 (Cynomolgus monkey CDCP1) | EC50 (Human CDCP1)
CDCP1 BiTE (CDCP1-002 Fab genetically fused to OKT3 anti-CD3 scFv) (bispecific antibody) | 75% | 75% |  |  |  | 
B1 |  |  | 52.3 MFI | no binding | 0.00334 µM | 0.0296 µM
B2 |  |  | 770 MFI |  | 0.0349 µM | 0.00237 µM
B3 |  |  | 673 MFI |  | 0.0971 µM | 0.0762 µM
B4 |  |  | 1160 MFI |  | 0.0196 µM | 0.000651 µM
B5 |  |  | 2.33 MFI |  | 0.0224 µM | 0.018 µM
B6 |  |  | 180 MFI |  | 0.666 µM | 0.0653 µM
B7 |  |  | 870 MFI |  |  | 
